Assay results: patent US20050053993A1, “Uses of an endothelial cell receptor” (priority 2002, published 2005)
Ends that are not written are not given here. Peptide text beside a SMILES is read from it. * marks the point of attachment. Biotin = O=C1N[C@H]2[C@H](CS[C@H]2CCCCC(=O)*)N1

Legend:
HMVEC = HMVEC (Homo sapiens, UniProt P11021); test: VEGF-stimulated HMVEC migration (Boyden chamber); format: cell-based; conditions: for inhibition of migration of activated endothelial cells (in words): compared to rK5; for IC50: read-out: IC50 values, inhibition of VEGF stimulation HMVEC migration, 3 ng/ml VEGF, 4 hours at 37° C., 48 well Boyden chamber
Description: Endothelial cell migration assays: The effect of rK5 on endothelial cell migration was determined by two different methods. The first assay was performed in a 96 well plate with a cellulose membrane between the upper and lower chambers. HMVEC were starved of growth factors overnight, labeled with fluorescent calcein AM (50-100 nM), plated into a 96 well migration chamber (2.9×10^4/well) (Neuroprobe, Gaitherburg, Md.), and stimulated to migrate with VEGF (5 ng/mL). After 4 h, migrated cells were measured by fluorescence (Frevert C W, Wong V A, Goodman R B, Goodwin R, Martin T R. Rapid fluorescence-based measurement of neutrophil migration in vitro. J Immunol Methods. 1998 Apr. 1;213(1):41-52). In a second assay for cellular migration, a standard Boyden chamber was used (Polyerini, P. J., Bouck, N. P. & Rastinejad, F. Assay and purification of naturally occurring inhibitor of angiogenesis. Meth. Enzymol. 198, 440-450 (1991)). HMVEC cells were starved overnight in DME containing 0.1% bovine serum albumin (BSA) and harvested by scraping and resuspended in DME with 0.1% BSA at 1.5×10^6 cells per ml. Cells were added to the bottom of a 48-well, Boyden chamber. The chamber was assembled and inverted, and cells were allowed to attach for 2 hours at 37° C. to polycarbonate chemotaxis membranes (5 μm pore size) that had been soaked in 0.1% gelatin overnight and dried. The chamber was re-inverted, test substances, including activators were added to the wells of the upper chamber and the apparatus was incubated for 4 hours at 37° C. Growth factors were used, where indicated, at concentrations determined in preliminary experiments to give equivalent migration responses of about 100 cells migrated/high powered field (400×). […] Membranes were recovered, fixed and stained and the number of cells that had migrated to the upper chamber per 10 high power fields counted. Background migration to DME+0.1% BSA was subtracted and the data reported as the number of cells migrated per 10 high power fields (400×) or, when results from multiple experiments were combined, as the percent inhibition of migration compared to the positive growth factor control (Polyerini, P. J., Bouck, N. P. & Rastinejad, F. Assay and purification of naturally occurring inhibitor of angiogenesis. Meth. Enzymol. 198, 440-450 (1991)).

GRP78 (bovine brain) = molecular target: T1, GRP78 (bovine brain) (Bos taurus, UniProt Q0VCX2); test: Ultracentrifugation binding of I125rK5(dog) with GRP78; conditions: 1 nM I125rK5(dog) + 1.5 nM GRP78; peptides 100 nM, rK5 1 nM
T1 construct: from tissue; host or cells: bovine brain
Description: Ultra centrifugation with 50,000 MW cut off filters was used with iodinated recombinant dog K5 (I^125rKS(dog)) and GRP78 (bovine brain). The GRP78 and I^125rK5 (dog) were incubated for 1 hour at room temperature. The solution was then transferred to ultracentrifuges and spun at 10,000×g for 2 min. The top chamber contained GRP78 (mw 78,000) and I^125rK5 (dog) that bound. The top and bottom solutions were counted for I125. Column A: 1 nM I^125rK5(dog). Column B: 1 nM I^125rK5 (dog)+1.5 nM GRP78. Column C: 1 nM I^125rK5(dog)+1.5 nM GRP78+100 nM N-terminal K5 peptide, LLPDVETPSEED. Column D: 1 nM I^125rK5(dog)+1.5 nM GRP78±100 nM active site K5 peptide PRKLYDY. Column E: 1 nM I^125rK5(dog)+1.5 nM GRP78+1 nM rK5 (unlabeled). The GRP78 bound to the labeled rK5 causing its retention on the top of the filter.

[1] = tested on: EAHY cell surface proteins (~75 kDa and ~95 kDa); test: S-tag-K5 affinity pull-down of biotinylated EAHY surface proteins; format: binding; conditions: 100 nM S-tag-K5; 1 μM peptides, 10 μM cold rK5
Description: The second method used to identify cell surface rK5 binding proteins was described previously (Zhang, J. C., et al, supra). Surface proteins on 4×10^6 EaHy cells were labeled with NHS-biotin. The cells were washed and lysed (M-Per, Pierce). Cell lysates were mixed with S-tag K5 for 1 hour at room temperature. S-tag K5 bound proteins were precipitated with S-protein agarose (Pierce). Bound proteins were eluted with excess rK5 or with excess PRKLYDY (SEQ ID NO:1) peptide. Eluted proteins were visualized with avidin-HRP and a chemiluminescent substrate. Mass spectroscopic analysis was used to identify the major protein bands.
In particular, surface proteins on 1×10^6 EAHY cells were labeled with NHS-biotin. The cells were washed 3× with PBS and lysed with M-pur. Cell lysates were mixed with (A) 100 nM S-tag-K5, (B) 100 nM S-tag-K5 plus 1 μM PRKLYDY, (C) 100 nM S-tag-K5 plus 10 μM cold rK5 and (D) 100 nM S-tag-K5 and N-terminal K5 peptide at 1 μM for 1 hour at room temperature. The K5 binding proteins were precipitated with S-protein-agarose. Bound proteins were eluted with 50 mM glycine buffer at pH 3.0 and run for PAGE analysis. Surface proteins (biotinylated) that bind K5 were visualized with avidin-HPR and a chemiluminescent substrate.

HMVECs = test: Competition of 3HK5 binding to endothelial cells; set-up: species or system human; conditions: 2 nM 3HK5; rK5(K82A) up to 500 nM
Description: Each K5 peptide or a N-terminal antibody to GRP78 was added to HMVECs at various concentrations for 1 hour at room temperature. Cells were washed and the amount of ^3HK5 bound was counted.
Binding of human ^125IrK5 to Endothelial Cells: Tritium-labeled rK5 was added to monolayers of 50,000 HMVEC cells that were either starved or stimulated for 16 hours by 15 ng/ml bFGF and 5 ng/ml VEGF in 96 well plates. The number of counts remaining bound to the cells after extensive washing determined total amount of rK5 bound (Dudani A K, Ganz P R. Endothelial cell surface actin serves as a binding site for plasminogen, tissue plasminogen activator and lipoprotein(a). Br J Haematol. 1996 October; 95(1): 168-78). Binding of ^125IK5 (dog) to Endothelial Cells and rK5 to Recombinant GRP78: The same methods as described above for the expression and purification of human K5 were used to express dog rK5 in E. coli. ^125IK5 (dog) was added to the wells and incubated at room temperature for 1 hour. After 1 hour the cells were washed and lysed with M-Per (Pierce, Racine, Wis.) and the amount of ^125IK5 (dog) bound was counted. Scatchard plot analysis was performed using Prism (GraphPad Software, Inc., San Diego, Calif.) software. Competition binding against 5 nM ^125IK5 (dog) was tested using a monoclonal antibody against GRP78 (N-20, Santa Cruz, Calif.) or a monoclonal antibody against K5 (Green Mountain Antibodies, Burlington, Vt.). The antibodies were added to HMVECs at various concentrations for 1 hour at room temperature. Cells were washed and the amount of bound ^125IK5 (dog) bound was counted. Competition binding was also tested against 2 nM 3HK5. K5 peptides or a c-terminal antibody to GRP78 (A-129, Santa Cruz, Calif.) were added to HMVECs at various concentrations for 1 hour at room temperature. Cells were washed, lysed and the amount of ^3HK5 bound was estimated by scintillation counting.

[2] = molecular target: GRP78 on the surface of human cells (EAHY, HMVEC, HT1080) (human, UniProt P11021 19-654); test: cell-based or functional assay
Sequence of GRP78 on the surface of human cells (EAHY, HMVEC, HT1080) (P11021 19-654): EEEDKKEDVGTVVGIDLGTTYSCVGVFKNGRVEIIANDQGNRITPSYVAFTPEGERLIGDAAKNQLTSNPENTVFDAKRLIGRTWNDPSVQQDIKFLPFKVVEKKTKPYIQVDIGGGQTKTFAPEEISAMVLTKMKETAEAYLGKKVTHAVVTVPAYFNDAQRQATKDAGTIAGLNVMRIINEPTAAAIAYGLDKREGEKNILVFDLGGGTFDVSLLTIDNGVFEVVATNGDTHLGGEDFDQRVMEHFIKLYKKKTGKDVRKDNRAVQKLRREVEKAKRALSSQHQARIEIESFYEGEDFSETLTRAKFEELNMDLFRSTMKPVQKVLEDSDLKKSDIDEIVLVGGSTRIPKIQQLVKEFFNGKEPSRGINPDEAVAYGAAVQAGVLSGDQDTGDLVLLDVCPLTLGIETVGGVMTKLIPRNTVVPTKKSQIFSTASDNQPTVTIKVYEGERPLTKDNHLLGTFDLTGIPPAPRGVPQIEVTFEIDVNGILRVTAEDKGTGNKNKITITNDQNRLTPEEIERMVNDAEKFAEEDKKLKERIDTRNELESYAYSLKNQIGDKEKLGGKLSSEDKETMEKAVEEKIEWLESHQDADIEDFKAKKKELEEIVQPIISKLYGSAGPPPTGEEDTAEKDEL

Sequence of HMVEC (P11021 19-654): as above
T1 sequence (Q0VCX2 20-655): as the sequence (P11021 19-654) above, with I114V, G626S, D629E, T630A, E632D counted along it

Question: How did the “inhibition of migration of activated endothelial cells (in words)” value (“inhibition of migration … (in words)” below) (HMVEC) turn out when “N-term-S-tag-Kringle 5: S-protein tagged rK5 used as probe for isolation of the cell surface receptor” was run?
Answer: The value was “similarly active”.

Question: Which IC50 (HMVEC) does the source give for CC(=O)N[C@@H](CC(C)C)C(=O)N[C@@H](Cc1ccc(O)cc1)C(=O)N[C@@H](CC(=O)O)C(=O)N[C@@H](Cc1ccc(O)cc1)C(N)=O [Ac-LYDY-NH2] (Ac-LYDY-NH2) here?
Answer: The IC50 was greater than 1000 nM.

Question: For Ac-KLYDY-NH2 [Ac-KLYDY-NH2], which “inhibition of migration … (in words)” value (HMVEC) is on record?
Answer: Its value is “equally potent compared to rK5”.

Question: With CC(=O)N[C@@H](CC(=O)O)C(=O)N[C@H](C(=O)N1CCC[C@H]1C(=O)N[C@@H](CCC(N)=O)C(N)=O)C(C)C [Ac-DVPQ-NH2] (Ac-DVPQ-NH2) as the molecule, how does the IC50 (HMVEC) read?
Answer: The IC50 was greater than 1000 nM.

Question: Which results are given for PRKLYDY (listed as Homo sapiens)?
Answer: inhibition of migration of activated endothelial cells (in words) (HMVEC): equally potent compared to rK5; inhibition of I125rK5(dog) binding to GRP78 (GRP78 (bovine brain)): inhibited; competition of protein binding to the S-tag K5 column [1]: competed; blocking of 3HK5 binding to endothelial cells (HMVECs): blocked

Question: For CC(C)C[C@H](NC(=O)[C@H](CCCCN)NC(=O)[C@H](CCCNC(=N)N)NC(=O)[C@@H]1CCCN1C(=O)CCCC[C@@H]1SC[C@@H]2NC(=O)N[C@@H]21)C(=O)N[C@@H](Cc1ccc(O)cc1)C(=O)N[C@@H](CC(=O)O)C(=O)N[C@@H](Cc1ccc(O)cc1)C(=O)O [Biotin-PRKLYDY] (Biotin-PRKLYDY-OH), which “inhibition of migration … (in words)” value (HMVEC) is on record?
Answer: The value was “similarly active”.

Question: With Ac-QDWAAQEPHRHSIFTPETNPRAGLEKNY-NH2 as the molecule, how does the IC50 (HMVEC) read?
Answer: Its IC50 is greater than 1000 nM.

Question: What does the source list for LLPDVETPSEED (listed as Homo sapiens)?
Answer: inhibition of I125rK5(dog) binding to GRP78 (GRP78 (bovine brain)): not; competition of protein binding to the S-tag K5 column [1]: did not inhibit; blocking of 3HK5 binding to endothelial cells (HMVECs): not

Question: Ac-MFGNGKGYRGKRATTVTGTP-NH2 was tested. Which IC50 (HMVEC) did it give?
Answer: Its IC50 is greater than 1000 nM.

Question: KLYD (listed as Homo sapiens) was tested. Which “inhibition of migration … (in words)” value (HMVEC) did it give?
Answer: Its value is “equally potent compared to rK5”.

Question: How did the IC50 (HMVEC) turn out when “Ac-VLLPDVETPSEED-NH2 [Ac-VLLPDVETPSEED-NH2]” was run?
Answer: The IC50 was greater than 1000 nM.

Question: Ac-QDWAAQEPHRHSIFTPETNPRAGLEKNY-NH2 [Ac-QDWAAQEPHRHSIFTPETNPRAGLEKNY-NH2] was tested. Which “IC50, inhibition of VEGF stimulated HMVEC migration” value (“IC50, inhibition” below) [2] did it give?
Answer: Its value is greater than 1000 nM.

B1: N-term-S-tag-Kringle 5 (ligand, human, UniProt P00747 481-560, looked up, not shown: small tags and cut ends)
chain: CMFGNGKGYRGKRATTVTGTPCQDWAAQEPHRHSIFTPETNPRAGLEKNYCRNPDGDVGGPWCYTTNPRKLYDYCDVPQC
Question: B1 was tested. Which “IC50, inhibition” value [2] did it give?
Answer: Its value is 0.2 nM.

Question: With Ac-DVPQ-NH2 [Ac-DVPQ-NH2] as the molecule, how does the “IC50, inhibition” value [2] read?
Answer: Its value is greater than 1000 nM.

Question: For Ac-KLYDY-NH2 [Ac-KLYDY-NH2], which “IC50, inhibition” value [2] is on record?
Answer: Its value is 0.1 nM.

Question: Ac-YTTNPRKLYDY-NH2 [Ac-YTTNPRKLYDY-HN2] was tested. Which “IC50, inhibition” value [2] did it give?
Answer: Its value is 0.2 nM.

Question: With Ac-MFGNGKGYRGKRATTVTGTP-NH2 [Ac-MFGNGKGYRGKRATTVTGTP-NH2] as the molecule, how does the “IC50, inhibition” value [2] read?
Answer: The value was greater than 1000 nM.

Question: Which “IC50, inhibition” value [2] does the source give for Ac-RNPDGDVGGPW-NH2 [Ac-RNPDGDVGGPW-NH2] here?
Answer: Its value is 0.5 nM.

Question: Ac-RKLYDY-NH2 [Ac-RKLYDY-NH2] was tested. Which “IC50, inhibition” value [2] did it give?
Answer: Its value is 0.12 nM.

Question: For Biotin-PRKLYDY [N-terminally biotinylated PRKLYDY peptide], which “IC50, inhibition” value [2] is on record?
Answer: Its value is 0.23 nM.

Question: Which “IC50, inhibition” value [2] does the source give for Ac-VLLPDVETPSEED-NH2 [Ac-VLLPDVETPSEED-NH2] here?
Answer: Its value is greater than 1000 nM.

Question: Ac-LYDY-NH2 [Ac-LYDY-NH2] was tested. Which “IC50, inhibition” value [2] did it give?
Answer: Its value is greater than 1000 nM.
